Assay results reported in doi:10.1101/803361 (bioRxiv, 2019).

Key:
[1] = biological target: Human Hsc70 (HSPA8), wild type (human, UniProt P11142 1-646); assay: HDX-MS
SEC + native gel or EMSA = biological target: the molecule itself; assay: SEC + native gel or EMSA

Chain of Human Hsc70 (HSPA8), wild type (P11142 whole entry): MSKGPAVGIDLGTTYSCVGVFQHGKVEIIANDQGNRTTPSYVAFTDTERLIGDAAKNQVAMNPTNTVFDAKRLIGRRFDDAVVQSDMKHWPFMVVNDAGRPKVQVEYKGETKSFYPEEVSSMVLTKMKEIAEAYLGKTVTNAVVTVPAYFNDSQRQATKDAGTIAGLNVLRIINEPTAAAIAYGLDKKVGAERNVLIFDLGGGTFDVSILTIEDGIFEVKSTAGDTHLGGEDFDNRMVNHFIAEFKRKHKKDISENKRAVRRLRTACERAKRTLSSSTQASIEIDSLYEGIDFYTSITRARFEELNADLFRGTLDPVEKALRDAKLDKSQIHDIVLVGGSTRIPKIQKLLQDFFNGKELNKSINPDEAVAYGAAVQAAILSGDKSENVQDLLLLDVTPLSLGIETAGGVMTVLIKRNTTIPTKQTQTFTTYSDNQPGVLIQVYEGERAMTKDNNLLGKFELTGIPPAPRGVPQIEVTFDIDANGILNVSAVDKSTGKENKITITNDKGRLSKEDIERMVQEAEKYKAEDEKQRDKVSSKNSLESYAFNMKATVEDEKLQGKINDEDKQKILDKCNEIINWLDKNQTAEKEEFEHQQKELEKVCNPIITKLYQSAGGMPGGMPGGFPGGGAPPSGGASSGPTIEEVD

B1: Human heat shock transcription factor 1 (Hsf1), wild type (natural protein)
chain: MDLPVGPGAAGPSNVPAFLTKLWTLVSDPDTDALICWSPSGNSFHVFDQGQFAKEVLPKYFKHNNMASFVRQLNMYGFRKVVHIEQGGLVKPERDDTEFQHPCFLRGQEQLLENIKRKVTSVSTLKSEDIKIRQDSVTKLLTDVQLMKGKQECMDSKLLAMKHENEALWREVASLRQKHAQQQKVVNKLIQFLISLVQSNRILGVKRKIPLMLNDSGSAHSMPKYSRQFSLEHVHGSGPYSAPSPAYSSSSLYAPDAVASSGPIISDITELAPASPMASPGGSIDERPLSSSPLVRVKEEPPSPPQSPRVEEASPGRPSSVDTLLSPTALIDSILRESEPAPASVTALTDARGHTDTEGRPPSPPPTSTPEKCLSVACLDKNELSDHLDAMDSNLDNLQTMLSSHGFSVDTSALLDLFSPSVTVPDMSLPDLDSSLASIQELLSPQEPPRPPEAENSSPDSGKQLVHYTAQPLFLLDPGSVDTGSNDLPVLFELGEGSYFSEGDGFAEDPTISLLTGSEPPKAKDPTVS
B1: binds [1].

B2: Hsf1-I190S,I194S (natural protein)
chain: MDLPVGPGAAGPSNVPAFLTKLWTLVSDPDTDALICWSPSGNSFHVFDQGQFAKEVLPKYFKHNNMASFVRQLNMYGFRKVVHIEQGGLVKPERDDTEFQHPCFLRGQEQLLENIKRKVTSVSTLKSEDIKIRQDSVTKLLTDVQLMKGKQECMDSKLLAMKHENEALWREVASLRQKHAQQQKVVNKLSQFLSSLVQSNRILGVKRKIPLMLNDSGSAHSMPKYSRQFSLEHVHGSGPYSAPSPAYSSSSLYAPDAVASSGPIISDITELAPASPMASPGGSIDERPLSSSPLVRVKEEPPSPPQSPRVEEASPGRPSSVDTLLSPTALIDSILRESEPAPASVTALTDARGHTDTEGRPPSPPPTSTPEKCLSVACLDKNELSDHLDAMDSNLDNLQTMLSSHGFSVDTSALLDLFSPSVTVPDMSLPDLDSSLASIQELLSPQEPPRPPEAENSSPDSGKQLVHYTAQPLFLLDPGSVDTGSNDLPVLFELGEGSYFSEGDGFAEDPTISLLTGSEPPKAKDPTVS
In the case of B2, the “stoichiometry N” value (SEC + native gel or EMSA) is reported as 3.
